Experimental data as given in paper PMC3229523, “Identification of Lactoferricin B Intracellular Targets Using an Escherichia coli Proteome Chip” (PLoS ONE, 2011).
Ends that are not written are not given here. * marks the point of attachment. Biotin = O=C1N[C@H]2[C@H](CS[C@H]2CCCCC(=O)*)N1

Tests used:
Test in all cases: peptide or protein array; E. coli proteome chip: purified His-tagged proteins printed in duplicate on Fullmoon slides, blocked with 1% BSA; 10 nM N-terminal biotinylated LfcinB with 1% BSA, room temperature, 1 h; detected with DyLight 649-labeled streptavidin, ratio to DyLight 549-labeled anti-His antibody; ProCAT normalisation, local cut-off; triplicate chips
Details in all cases: both partners purified
YibN = target: T1, YibN (E. coli K-12, UniProt P0AG27 1-143)
T1 construct: YibN, E. coli K-12
T1 sequence (looked up): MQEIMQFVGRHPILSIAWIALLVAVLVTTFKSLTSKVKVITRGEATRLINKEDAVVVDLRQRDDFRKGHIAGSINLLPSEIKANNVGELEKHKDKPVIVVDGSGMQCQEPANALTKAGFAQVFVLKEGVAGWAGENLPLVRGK

DinG = target: T2, DinG (E. coli K-12, UniProt P27296 1-716)
T2 construct: DinG, E. coli K-12
T2 sequence (looked up): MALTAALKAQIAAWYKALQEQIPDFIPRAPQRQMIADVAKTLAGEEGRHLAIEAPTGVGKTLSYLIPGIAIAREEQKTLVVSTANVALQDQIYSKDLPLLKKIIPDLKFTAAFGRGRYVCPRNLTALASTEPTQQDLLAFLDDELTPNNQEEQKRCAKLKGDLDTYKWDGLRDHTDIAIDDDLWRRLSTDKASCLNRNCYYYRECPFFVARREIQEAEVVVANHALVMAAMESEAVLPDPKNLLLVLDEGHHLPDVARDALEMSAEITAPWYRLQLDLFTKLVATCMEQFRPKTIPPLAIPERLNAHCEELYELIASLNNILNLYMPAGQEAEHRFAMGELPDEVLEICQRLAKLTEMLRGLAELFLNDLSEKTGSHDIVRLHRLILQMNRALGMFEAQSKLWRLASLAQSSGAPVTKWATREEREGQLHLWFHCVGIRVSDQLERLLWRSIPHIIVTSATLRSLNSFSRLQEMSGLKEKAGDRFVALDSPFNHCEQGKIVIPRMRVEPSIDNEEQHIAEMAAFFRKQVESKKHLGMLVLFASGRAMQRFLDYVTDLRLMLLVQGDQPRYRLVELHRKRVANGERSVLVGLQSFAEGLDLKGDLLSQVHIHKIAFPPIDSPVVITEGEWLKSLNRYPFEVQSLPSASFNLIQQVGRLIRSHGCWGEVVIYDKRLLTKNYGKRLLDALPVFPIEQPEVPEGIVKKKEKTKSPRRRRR

YcgK = target: T3, YcgK (E. coli K-12, UniProt P76002 23-133)
T3 construct: YcgK, E. coli K-12
T3 sequence (looked up): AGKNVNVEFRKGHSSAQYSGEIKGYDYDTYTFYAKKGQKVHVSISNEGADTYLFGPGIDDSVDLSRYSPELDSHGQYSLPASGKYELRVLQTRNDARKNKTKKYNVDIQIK

YihS = target: T4, YihS (E. coli K-12, UniProt P32140 1-413)
T4 construct: YihS, E. coli K-12
T4 sequence (looked up): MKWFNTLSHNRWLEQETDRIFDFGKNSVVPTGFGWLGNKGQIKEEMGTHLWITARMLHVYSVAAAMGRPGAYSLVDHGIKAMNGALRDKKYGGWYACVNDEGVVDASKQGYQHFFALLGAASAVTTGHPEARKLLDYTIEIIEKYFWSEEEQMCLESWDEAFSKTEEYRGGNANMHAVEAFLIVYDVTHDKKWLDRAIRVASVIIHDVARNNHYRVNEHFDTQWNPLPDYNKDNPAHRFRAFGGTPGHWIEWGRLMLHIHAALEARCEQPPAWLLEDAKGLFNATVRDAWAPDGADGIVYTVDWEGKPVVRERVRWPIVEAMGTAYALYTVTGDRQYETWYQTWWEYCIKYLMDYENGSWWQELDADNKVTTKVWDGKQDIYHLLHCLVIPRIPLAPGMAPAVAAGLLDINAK

Hha = target: T5, Hha (E. coli K-12, UniProt P0ACE3 1-72)
T5 construct: Hha, E. coli K-12
T5 sequence (looked up): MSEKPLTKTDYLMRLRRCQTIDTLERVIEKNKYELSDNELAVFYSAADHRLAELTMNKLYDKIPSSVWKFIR

GlpK = target: T6, GlpK (E. coli K-12, UniProt P0A6F3 1-502)
T6 construct: GlpK, E. coli K-12

YbeY = target: T7, YbeY (E. coli K-12, UniProt P0A898 1-155)
T7 construct: YbeY, E. coli K-12

Measured: binding result

T7 sequence (P0A898 whole entry): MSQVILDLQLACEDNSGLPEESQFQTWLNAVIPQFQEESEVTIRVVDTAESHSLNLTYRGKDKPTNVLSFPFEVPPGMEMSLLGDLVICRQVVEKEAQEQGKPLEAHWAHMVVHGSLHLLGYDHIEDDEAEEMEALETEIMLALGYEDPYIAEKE
T6 sequence (P0A6F3 whole entry): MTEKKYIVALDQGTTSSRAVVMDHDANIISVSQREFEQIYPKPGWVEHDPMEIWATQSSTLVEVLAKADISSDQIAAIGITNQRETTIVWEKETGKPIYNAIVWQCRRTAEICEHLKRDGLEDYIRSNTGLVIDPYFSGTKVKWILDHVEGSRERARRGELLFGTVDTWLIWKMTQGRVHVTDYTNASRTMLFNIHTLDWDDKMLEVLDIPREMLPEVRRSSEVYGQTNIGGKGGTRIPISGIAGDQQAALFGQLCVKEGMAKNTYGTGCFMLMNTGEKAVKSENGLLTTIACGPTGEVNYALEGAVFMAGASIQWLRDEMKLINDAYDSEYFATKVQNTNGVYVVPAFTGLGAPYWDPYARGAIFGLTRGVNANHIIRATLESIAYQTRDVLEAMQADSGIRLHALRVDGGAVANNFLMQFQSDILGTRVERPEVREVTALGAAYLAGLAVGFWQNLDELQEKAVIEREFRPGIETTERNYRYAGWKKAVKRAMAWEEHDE

B1: N-terminal biotinylated Lactoferricin B (peptide, UniProt P24627 36-60, looked up)
peptide: Biotin-FKCRRWQWRMKKLGAPSITCVRRAF
modifications: ends and bridges not checked
notes: lactoferricin B (LfcinB), cationic antimicrobial peptide of 25 amino acids; also called biotinylated LfcinB; biotin-labeled LfcinB; source: bought: Kelowna Inc
binds: all assays above
